Publication PMC12012478, “Roquin exhibits opposing effects on RNA stem-loop stability through its two ROQ domain binding sites”

Columns and labels:
[1] = biological target: T1, coreROQ (Roquin-1 core ROQ domain) (murine) (UniProt Q4VGL6); experiment: optical tweezers (kinetics, koff/kon); conditions: low-salt buffer, Protein/RNA buffer 150 mM NaCl, 50 mM Tris pH 7.0, 1 mM TCEP, OT in low-salt near-physiological buffer (composition not in material), EMSA 3 nM RNA, 0-20 uM …
T1 sequence: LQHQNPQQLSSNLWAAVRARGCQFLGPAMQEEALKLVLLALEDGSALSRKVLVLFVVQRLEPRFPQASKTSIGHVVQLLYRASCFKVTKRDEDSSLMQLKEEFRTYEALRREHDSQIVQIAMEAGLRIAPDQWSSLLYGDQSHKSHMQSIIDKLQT

[2] = biological target: T2, extROQ (Roquin-1 extended ROQ domain) (murine) (UniProt Q4VGL6); experiment: optical tweezers (kinetics, koff/kon); conditions: low-salt buffer, Protein/RNA buffer 150 mM NaCl, 50 mM Tris pH 7.0, 1 mM TCEP, OT in low-salt near-physiological buffer (composition not in material), EMSA 3 nM RNA, 0-20 uM …
T2 sequence: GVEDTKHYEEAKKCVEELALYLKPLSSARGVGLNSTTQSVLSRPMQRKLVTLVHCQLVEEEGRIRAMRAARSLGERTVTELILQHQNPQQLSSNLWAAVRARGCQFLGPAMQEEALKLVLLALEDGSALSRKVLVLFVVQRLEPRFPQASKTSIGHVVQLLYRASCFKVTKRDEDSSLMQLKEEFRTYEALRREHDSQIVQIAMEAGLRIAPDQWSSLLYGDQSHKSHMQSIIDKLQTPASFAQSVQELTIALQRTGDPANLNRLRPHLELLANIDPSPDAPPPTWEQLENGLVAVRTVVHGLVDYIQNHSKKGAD

[3] = biological target: T3, extROQ (Roquin-1 extended ROQ domain) (murine, UniProt Q4VGL6 89-404); experiment: hydroxyl radical footprinting; residues 62-87 protected, 88-100 more exposed; Protein/RNA buffer 150 mM NaCl, 50 mM Tris pH 7.0, 1 mM TCEP; OT in low-salt near-physiological buffer (composition not in material); EMSA 3 nM RNA, 0-20 uM protein, 6% native PAGE at 4 C; conditions: protein: recombinant; tags: His tag removed by TEV (Ni IMAC; tag type implied); label: 5' fluorescein in EMSA; none stated for NMR/CD; hairpin with hexaloop and central bulge
T3 sequence: T2 sequence

[4] = biological target: T4, coreROQ (Roquin-1 core ROQ domain) (murine, UniProt Q4VGL6 171-326); experiment: as above; conditions: protein: recombinant; tags: His tag removed by TEV (Ni IMAC; tag type implied); label: 5' fluorescein in EMSA; none stated for NMR/CD; hairpin with hexaloop and central bulge
T4 sequence: T1 sequence

Molecule: GGCAGGGCUGACGUAGUUGGAGUGGUGCGGGAGGGCCUGCCAGUACCCUCCACACCGUUCUAGGUGCUGGGCUGGCUCUGGGCAGUGAGGGCAGAAUUCAGGUG [Ox40 ADE, optical tweezers construct]
- Kd ([1]; extrapolated to zero force): 4.8 nM
- Kd ([2]; extrapolated to zero force): 1.67 nM

Molecule: GGCAGGGCUGACGUAGUUGGAGUGGUGCGGGAGGGGCUUUCCUAUGUAUGCUAUGCAUACUACAGUGAGGGCAGAAUUCAGGUG [Ox40 CDE, optical tweezers construct]
- Kd ([1]; zero force): 33 nM
- Kd ([2]; zero force): 2 nM

B1: Ox40 ADE, bulk RNA (structured_RNA)
RNA: GCCUGCCAGUACCCUCCACACCGUUCUAGGUGCUGGGCUGGCUCUGGGC
- binding result [3]: binds
- binding result [4]: binds
